Molecular target: GDP-L-galactose phosphorylase 1 (GGP1) with His6, expressed in E. coli (Solanum lycopersicum (tomato))

inhibition of GGP activity by PLP incubated 2 h in darkness before mixing: 86%
Substance: PAS/LOV protein (PLP) with His6, expressed in tobacco (natural protein)

— article doi:10.1101/2022.12.12.520143
